For two molecules, stoichiometry N results are on record in paper PMC8034431.

For assay [1], the target named is wild-type FLT3 ligand (FLWT). Briefly: SEC-MALS; ligand mixed with FLT3_(D1-D5) (20% molar excess of FL_(L27D)); Superdex 200 Increase, HBS (20 mM HEPES pH 7.4, 150 mM NaCl), 0.5 ml/min, 25 °C; glycoprotein conjugate analysis; N for FLWT counts FLT3 molecules for each dimeric FLWT. In general terms: SEC sorts molecules by how far they enter the pores of the column.

Assay [2] concerns the target human FLT3 domains 1-5 (FLT3_(D1-D5)) (human) (UniProt P36888). Described as above.

In turn, “human FLT3 domains 1-5 (FLT3_(D1-D5)) (from UniProt P36888 27-541) (domain or fragment)” came in with a stoichiometry N in assay [1] of 2.

B1: FLT3 ligand Leu27Asp mutant (FL_(L27D)), as produced (ligand)
chain: TQDCSFQHSPISSDFAVKIRELSDYLDQDYPVTVASNLQDEELCGGLWRLVLAQRWMERLKTVAGSKMQGLLERVNTEIHFVTKCAFQPPPSCLRFVQTNISRLLQETSEQLVALKPWITRQNFSRCLELQCQP
Take B1: the stoichiometry N in assay [2] stood at 1.

Broadly, the stoichiometry N is a count of units in the complex or per binding partner.
